Measurements from US20250066745A1, “MUTANTS AND USE THEREOF” (BGI SHENZHEN, priority 2021, published 2025).

Assays:
Type in all cases: biochemical
Set-up in all cases: key to Activity of mutant relative to wild-type Gaussia luciferase without the signal peptide: ratio of mutant luminescence intensity to wild-type Gaussia luciferase
[1] = Luminescence activity assay of purified Gaussia luciferase mutants on coelenterazine derivative ZS2; conditions: Substrate ZS2 (Table 16)
Method in brief: (§1)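 Readout: luminescence intensity, as ratio to signal-peptide-free wild-type enzyme. Enzyme 1 μg/mL, substrate 100 μM stock, 10 μL + 90 μL; buffer 50 mM Tris-HCl pH 8.0, 100 mM NaCl, 0.1% Tween-20.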

[2] = Luminescence activity assay of purified Gaussia luciferase mutants on fluoro-coelenterazine; conditions: Substrate f-CTZ (Table 16)
Method in brief: as §1

[3] = Luminescence activity assay of purified Gaussia luciferase mutants on coelenterazine; conditions: Substrate CTZ (Table 16)
Method in brief: as §1

| Activity of mutant relative to wild-type Gaussia luciferase without the signal peptide [1] | Activity of mutant relative to wild-type Gaussia luciferase without the signal peptide [2] | Activity of mutant relative to wild-type Gaussia luciferase without the signal peptide [3] | Molecule |
| --- | --- | --- | --- |
| 1.337 | 1.701 | 1.165 | S103I A104G E110G L124M V138D: Gaussia luciferase mutant (protein, SIGNAL (1)..(17), Gaussia luciferase mutant) MGVKVLFALICIAVAEAKPTENNEDFNIVAVASNFATTDLDADRGKLPGKKLPLEVLKEMEANARKAGCTRGCLICLSHIKCTPKMKKFIPGRCHTYEGDKEIGQGGIGGAIVDIPEIPGFKDMEPMEQFIAQVDLCDDCTTGCLKGLANVQCSDLLKKWLPQRCATFASKIQGQVDKIKGAGGD |
| 0.481 | 0.404 | 0.703 | Q152R T167G G174S Q175E K178N A182Y G183A: Gaussia luciferase mutant (protein, SIGNAL (1)..(17), Gaussia luciferase mutant) MGVKVLFALICIAVAEAKPTENNEDFNIVAVASNFATTDLDADRGKLPGKKLPLEVLKEMEANARKAGCTRGCLICLSHIKCTPKMKKFIPGRCHTYEGDKESAQGGIGEAIVDIPEIPGFKDLEPMEQFIAQVDLCVDCTTGCLKGLANVRCSDLLKKWLPQRCAGFASKIQSEVDNIKGYAGD |
| 0.138 | 0.135 | 0.170 | Q163T T167S S170V G174N K178N A182Y G183A: Gaussia luciferase mutant (protein, SIGNAL (1)..(17), Gaussia luciferase mutant) MGVKVLFALICIAVAEAKPTENNEDFNIVAVASNFATTDLDADRGKLPGKKLPLEVLKEMEANARKAGCTRGCLICLSHIKCTPKMKKFIPGRCHTYEGDKESAQGGIGEAIVDIPEIPGFKDLEPMEQFIAQVDLCVDCTTGCLKGLANVQCSDLLKKWLPTRCASFAVKIQNQVDNIKGYAGD |
| 0.166 | 0.130 | 0.126 | F26C N27D A30D A32V S33R A36T: Gaussia luciferase mutant (protein, SIGNAL (1)..(17), Gaussia luciferase mutant) MGVKVLFALICIAVAEAKPTENNEDCDIVDVVRNFTTTDLDADRGKLPGKKLPLEVLKEMEANARKAGCTRGCLICLSHIKCTPKMKKFIPGRCHTYEGDKESAQGGIGEAIVDIPEIPGFKDLEPMEQFIAQVDLCVDCTTGCLKGLANVQCSDLLKKWLPQRCATFASKIQGQVDKIKGAGGD |
| 0.026 | 0.080 | 0.016 | F26I N27D V29A A30D V31I S33K A36N T37K L40P: Gaussia luciferase mutant (protein, SIGNAL (1)..(17), Gaussia luciferase mutant) MGVKVLFALICIAVAEAKPTENNEDIDIADIAKNFNKTDPDADRGKLPGKKLPLEVLKEMEANARKAGCTRGCLICLSHIKCTPKMKKFIPGRCHTYEGDKESAQGGIGEAIVDIPEIPGFKDLEPMEQFIAQVDLCVDCTTGCLKGLANVQCSDLLKKWLPQRCATFASKIQGQVDKIKGAGGD |
| 0.086 | 0.065 | 0.054 | F26C N27D A30V V31L A32G S33I A36V T37M L40G: Gaussia luciferase mutant (protein, SIGNAL (1)..(17), Gaussia luciferase mutant) MGVKVLFALICIAVAEAKPTENNEDCDIVVLGINFVMTDGDADRGKLPGKKLPLEVLKEMEANARKAGCTRGCLICLSHIKCTPKMKKFIPGRCHTYEGDKESAQGGIGEAIVDIPEIPGFKDLEPMEQFIAQVDLCVDCTTGCLKGLANVQCSDLLKKWLPQRCATFASKIQGQVDKIKGAGGD |
| 1.231 | 0.583 | 1.470 | F26I V29A A30D A32V S33K T37E L40A: Gaussia luciferase mutant (protein, SIGNAL (1)..(17), Gaussia luciferase mutant) MGVKVLFALICIAVAEAKPTENNEDINIADVVKNFAETDADADRGKLPGKKLPLEVLKEMEANARKAGCTRGCLICLSHIKCTPKMKKFIPGRCHTYEGDKESAQGGIGEAIVDIPEIPGFKDLEPMEQFIAQVDLCVDCTTGCLKGLANVQCSDLLKKWLPQRCATFASKIQGQVDKIKGAGGD |
| 0.067 | 0.095 | 0.066 | F26L N27H V29C V31I S33V A36Q T37S L40G: Gaussia luciferase mutant (protein, SIGNAL (1)..(17), Gaussia luciferase mutant) MGVKVLFALICIAVAEAKPTENNEDLHICAIAVNFQSTDGDADRGKLPGKKLPLEVLKEMEANARKAGCTRGCLICLSHIKCTPKMKKFIPGRCHTYEGDKESAQGGIGEAIVDIPEIPGFKDLEPMEQFIAQVDLCVDCTTGCLKGLANVQCSDLLKKWLPQRCATFASKIQGQVDKIKGAGGD |

More lines, now with the values behind:

| Molecule | Activity of mutant relative to wild-type Gaussia luciferase without the signal peptide [1] | Activity of mutant relative to wild-type Gaussia luciferase without the signal peptide [2] | Activity of mutant relative to wild-type Gaussia luciferase without the signal peptide [3] |
| --- | --- | --- | --- |
| F26G N27Y A30G V31L A32G S33L A36Y T37V L40E: Gaussia luciferase mutant (protein, SIGNAL (1)..(17), Gaussia luciferase mutant) MGVKVLFALICIAVAEAKPTENNEDGYIVGLGLNFYVTDEDADRGKLPGKKLPLEVLKEMEANARKAGCTRGCLICLSHIKCTPKMKKFIPGRCHTYEGDKESAQGGIGEAIVDIPEIPGFKDLEPMEQFIAQVDLCVDCTTGCLKGLANVQCSDLLKKWLPQRCATFASKIQGQVDKIKGAGGD | 0.027 | 0.025 | 0.031 |
| F26G N27Y V29C A30V V31L S33G A36R T37A L40A: Gaussia luciferase mutant (protein, SIGNAL (1)..(17), Gaussia luciferase mutant) MGVKVLFALICIAVAEAKPTENNEDGYICVLAGNFRATDADADRGKLPGKKLPLEVLKEMEANARKAGCTRGCLICLSHIKCTPKMKKFIPGRCHTYEGDKESAQGGIGEAIVDIPEIPGFKDLEPMEQFIAQVDLCVDCTTGCLKGLANVQCSDLLKKWLPQRCATFASKIQGQVDKIKGAGGD | 0.080 | 0.104 | 0.088 |
| F26N V29S A30D S33D A36T T37A L40G: Gaussia luciferase mutant (protein, SIGNAL (1)..(17), Gaussia luciferase mutant) MGVKVLFALICIAVAEAKPTENNEDNNISDVADNFTATDGDADRGKLPGKKLPLEVLKEMEANARKAGCTRGCLICLSHIKCTPKMKKFIPGRCHTYEGDKESAQGGIGEAIVDIPEIPGFKDLEPMEQFIAQVDLCVDCTTGCLKGLANVQCSDLLKKWLPQRCATFASKIQGQVDKIKGAGGD | 0.106 | 0.121 | 0.098 |
| F26C N27D V29L A32V A36I T37A L40I: Gaussia luciferase mutant (protein, SIGNAL (1)..(17), Gaussia luciferase mutant) MGVKVLFALICIAVAEAKPTENNEDCDILAVVSNFIATDIDADRGKLPGKKLPLEVLKEMEANARKAGCTRGCLICLSHIKCTPKMKKFIPGRCHTYEGDKESAQGGIGEAIVDIPEIPGFKDLEPMEQFIAQVDLCVDCTTGCLKGLANVQCSDLLKKWLPQRCATFASKIQGQVDKIKGAGGD | 0.166 | 0.141 | 0.203 |
| F26G N27D V29L A30V V31I A32G S33D A36W T37S: Gaussia luciferase mutant (protein, SIGNAL (1)..(17), Gaussia luciferase mutant) MGVKVLFALICIAVAEAKPTENNEDGDILVIGDNFWSTDLDADRGKLPGKKLPLEVLKEMEANARKAGCTRGCLICLSHIKCTPKMKKFIPGRCHTYEGDKESAQGGIGEAIVDIPEIPGFKDLEPMEQFIAQVDLCVDCTTGCLKGLANVQCSDLLKKWLPQRCATFASKIQGQVDKIKGAGGD | 0.027 | 0.040 | 0.038 |
| F26L V29A V31I A32D S33R A36N T37E LA0P: Gaussia luciferase mutant (protein) MGVKVLFALICIAVAEAKPTENNEDLNIAAIDRNFNETDLDADRGKLPGKKLPLEVLKEMEANARKAGCTRGCLICLSHIKCTPKMKKFIPGRCHTYEGDKESAQGGIGEAIVDIPEIPGFKDLEPMEQFIAQVDLCVDCTTGCLKGLANVQCSDLLKKWLPQRCATFASKIQGQVDKIKGAGGD | 0.385 | 0.402 | 0.406 |
